Measurements taken from paper PMC7736784 (2020).

B1: NS4 (peptide)
chain: NVTGYRLFKKISN
B2: NS5-Stoffel fusion (NanoLuc small fragment NS5) (peptide)
chain: NVSGWRLFKKISN
B3: NS6 (peptide)
chain: GVTGWRLCERILA

What follows are binders tested against Sso7d-NanoLuc large fragment fusion.

| Binder | Kd |
| --- | --- |
| B1 | 8.5 nM |
| B2 | 3.4 nM |
| B3 | 900 nM |
